{"source": "paper doi:10.1101/2020.07.07.191163", "about": "(bioRxiv, 2020)", "target": "the molecule itself", "test": "native MS"}
{"protein": "Bacillus subtilis pyruvate kinase PykA (enzyme, B. subtilis, UniProt P80885 1-585, looked up) MRKTKIVCTIGPASESIEMLTKLMESGMNVARLNFSHGDFEEHGARIKNIREASKKLGKNVGILLDTKGPEIRTHTMENGGIELETGKELIISMDEVVGTTDKISVTYEGLVHDVEQGSTILLDDGLIGLEVLDVDAAKREIKTKVLNNGTLKNKKGVNVPGVSVNLPGITEKDARDIVFGIEQGVDFIAPSFIRRSTDVLEIRELLEEHNAQDIQIIPKIENQEGVDNIDAILEVSDGLMVARGDLGVEIPAEEVPLVQKELIKKCNALGKPVITATQMLDSMQRNPRPTRAEASDVANAIFDGTDAIMLSGETAAGSYPVEAVQTMHNIASRSEEALNYKEILSKRRDQVGMTITDAIGQSVAHTAINLNAAAIVTPTESGHTARMIAKYRPQAPIVAVTVNDSISRKLALVSGVFAESGQNASSTDEMLEDAVQKSLNSGIVKHGDLIVITAGTVGESGTTNLMKVHTVGDIIAKGQGIGRKSAYGPVVVAQNAKEAEQKMTDGAVLVTKSTDRDMIASLEKASALITEEGGLTSHAAVVGLSLGIPVIVGLENATSILTDGQDITVDASRGAVYQGRASVL", "values": [{"measurement": "stoichiometry N", "result": 4}]}
